In the Immune Epitope Database (IEDB) one finds IC50 data, which are given here for 18 sequences.

Among the targets are HLA-A*02:02; HLA-A*02:03; HLA-A*02:06; HLA-A*68:02; HLA-A*02:01.
Common to all, as to assay: IEDB peptide-MHC binding, cellular MHC/competitive/fluorescence; ≥ and ≤ were set here for values at or beyond the usual limits of such assays
[1] abbreviates: source organism: Influenza A virus.
Setting [2] is: source organism: Vaccinia virus WR.

The term IC50 denotes the concentration at which inhibition is half-maximal. Regarding AAFEDLRL, the IC50 with HLA-A*02:02 (setting [1]) was 17.5 µM; in the test with HLA-A*02:03 (setting [1]) it was 48.9 µM; in the test with HLA-A*02:06 (setting [1]) it was 46.9 µM; with HLA-A*68:02 (setting [1]), 59.8 µM; with HLA-A*02:01 (setting [1]), no less than 70 µM.

For AAFEDLRV, the IC50 with HLA-A*02:02 (setting [1]) was 28.8 µM; with HLA-A*02:03 (setting [1]), 7.32 µM; with HLA-A*02:06 (setting [1]), 18.4 µM; with HLA-A*68:02 (setting [1]), no less than 70 µM; with HLA-A*02:01 (setting [1]) it was 31.4 µM.

AARLKRSAT: the IC50 with HLA-A*02:02 (setting [2]) is 12.5 µM; with HLA-A*02:03 (setting [2]) it was 10.5 µM; in the test with HLA-A*02:06 (setting [2]) it was 63.8 µM; with HLA-A*68:02 (setting [2]) it was no less than 70 µM; with HLA-A*02:01 (setting [2]), no less than 70 µM.

Regarding AATKRYPGVM, the IC50 with HLA-A*02:02 (setting [2]) was 20.1 µM; with HLA-A*02:03 (setting [2]), 47.9 µM; with HLA-A*02:06 (setting [2]), 46.8 µM; with HLA-A*68:02 (setting [2]), no less than 70 µM; with HLA-A*02:01 (setting [2]) it was 67.2 µM.

Take AIDRQVSVKL: the IC50 with HLA-A*02:02 (setting [2]) stood at 7.9 µM; with HLA-A*02:03 (setting [2]), 13.1 µM; with HLA-A*02:06 (setting [2]), 31.9 µM; with HLA-A*68:02 (setting [2]) it was 52.3 µM; with HLA-A*02:01 (setting [2]) it was 14 µM.

For AIKQYGDIDL, the IC50 is 23.4 µM with HLA-A*02:02 (setting [2]); 46.4 µM in the test with HLA-A*02:03 (setting [2]); no less than 70 µM with HLA-A*02:06 (setting [2]); 38.7 µM with HLA-A*68:02 (setting [2]); 45.8 µM in the test with HLA-A*02:01 (setting [2]).

AIKSNNHLT: the IC50 with HLA-A*02:02 (setting [2]) is 50.7 µM; with HLA-A*02:03 (setting [2]) it was 28.6 µM; with HLA-A*02:06 (setting [2]) it was no less than 70 µM; with HLA-A*68:02 (setting [2]), 46.1 µM; in the test with HLA-A*02:01 (setting [2]), 27.2 µM.

Consider AINKCVDIFT, for which the IC50 in the test with HLA-A*02:02 (setting [2]) is 25.3 µM; in the test with HLA-A*02:03 (setting [2]), 26.4 µM; with HLA-A*02:06 (setting [2]), 38.5 µM; with HLA-A*68:02 (setting [2]), 39 µM; in the test with HLA-A*02:01 (setting [2]), 15.9 µM.

Turning to ALEPRKEIDV, the IC50 was 8.37 µM in the test with HLA-A*02:02 (setting [2]); 11.2 µM in the test with HLA-A*02:03 (setting [2]); 63.8 µM in the test with HLA-A*02:06 (setting [2]); no less than 70 µM with HLA-A*68:02 (setting [2]); 27.2 µM with HLA-A*02:01 (setting [2]).

As for ALSYSAGA, the IC50 in the test with HLA-A*02:02 (setting [1]) is 16.9 µM; in the test with HLA-A*02:03 (setting [1]), 10.7 µM; with HLA-A*02:06 (setting [1]), no less than 70 µM; with HLA-A*68:02 (setting [1]), no less than 70 µM; in the test with HLA-A*02:01 (setting [1]), 39.3 µM.

As for ALSYSTGA, the IC50 is no less than 70 µM with HLA-A*02:02 (setting [1]); 25.8 µM in the test with HLA-A*02:03 (setting [1]); no less than 70 µM with HLA-A*02:06 (setting [1]); no less than 70 µM in the test with HLA-A*68:02 (setting [1]); no less than 70 µM in the test with HLA-A*02:01 (setting [1]).

On to ATAILRKA, for which the IC50 with HLA-A*02:02 (setting [1]) is 61.8 µM; in the test with HLA-A*02:03 (setting [1]), 42.3 µM; with HLA-A*02:06 (setting [1]) it was no less than 70 µM; in the test with HLA-A*68:02 (setting [1]), no less than 70 µM; with HLA-A*02:01 (setting [1]), 52.9 µM.

Take ATALANTI: the IC50 with HLA-A*02:02 (setting [1]) was 42.9 µM; with HLA-A*02:03 (setting [1]) it was 22.4 µM; with HLA-A*02:06 (setting [1]), no less than 70 µM; in the test with HLA-A*68:02 (setting [1]), 40.8 µM; in the test with HLA-A*02:01 (setting [1]), 21.9 µM.

Regarding ATKRIRMA, the IC50 was 59.4 µM in the test with HLA-A*02:02 (setting [1]); 11.9 µM in the test with HLA-A*02:03 (setting [1]); no less than 70 µM with HLA-A*02:06 (setting [1]); 58.6 µM with HLA-A*68:02 (setting [1]); 42.9 µM with HLA-A*02:01 (setting [1]).

For ATQFNFNGHT, the IC50 came out at 28.6 µM in the test with HLA-A*02:02 (setting [2]); 11.5 µM with HLA-A*02:03 (setting [2]); 26.4 µM with HLA-A*02:06 (setting [2]); 23.3 µM with HLA-A*68:02 (setting [2]); 38.6 µM with HLA-A*02:01 (setting [2]).

ATRRMIQL: the IC50 in the test with HLA-A*02:02 (setting [1]), in the test with HLA-A*02:03 (setting [1]), with HLA-A*02:06 (setting [1]), with HLA-A*68:02 (setting [1]) and with HLA-A*02:01 (setting [1]) was no less than 70 µM each time.

Take ATVSADPL: the IC50 with HLA-A*02:02 (setting [1]) is 52 µM; with HLA-A*02:03 (setting [1]) it was no less than 70 µM; with HLA-A*02:06 (setting [1]), 21.5 µM; in the test with HLA-A*68:02 (setting [1]), 42.3 µM; in the test with HLA-A*02:01 (setting [1]), no less than 70 µM.

Consider ATYQRTRA, for which the IC50 with HLA-A*02:02 (setting [1]), with HLA-A*02:03 (setting [1]), in the test with HLA-A*02:06 (setting [1]), in the test with HLA-A*68:02 (setting [1]) and with HLA-A*02:01 (setting [1]) was no less than 70 µM in each case.
